Test results from the supplement of paper PMC12042874.
± gives the uncertainty stated by the source.

Assay: amyloid nucleation score (Sup35N fusion, yeast selection) (log enrichment); library NNK3; higher = more nucleation; inactive = no reads after selection
In short: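 After 24 hours of induction with 100 μM copper sulfate, psi-negative yeast expressing peptides of 20 random codons fused to Sup35N were grown for 7 days at 30°C on medium lacking adenine and uracil. Input and output plasmid inserts were sequenced with Illumina, and sequences with under 100 input reads were discarded. Scores for nucleation are the DiMSum log enrichment of output over input reads, centred on the mode score of non-aggregating sequences.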

Substance: CECTRVCRVCPSVSMHAIK
- amyloid nucleation score: inactive

Substance: CEFTYGKDAKVRTEAYHAYW
- amyloid nucleation score: inactive

Substance: CEGCTYMCSCI
- amyloid nucleation score: 0.85 ± 0.1

Substance: CEGVAHSDMFLRLLLTETGL
- amyloid nucleation score: -0.792 ± 1.8

Substance: CEIRSCGENFNATSRGRPGI
- amyloid nucleation score: inactive

Substance: CEKGLFLFSFSKFTSYPPGM
- amyloid nucleation score: -0.435 ± 0.55

Substance: CEPMRYNCFCGFCIYDVRV
- amyloid nucleation score: 2.36 ± 0.06

Substance: CFCQVSKANWLNR
- amyloid nucleation score: inactive

Substance: CFLMCVAVVCRIRNYYWCTI
- amyloid nucleation score: inactive

Substance: CFNSR
- amyloid nucleation score: inactive

Substance: CFRVYVPNSKSDDL
- amyloid nucleation score: inactive

Substance: CFSNLGCTGWRT
- amyloid nucleation score: -0.684 ± 1.2

Substance: CFTDSFINTLCVFNIDPGFP
- amyloid nucleation score: 2.46 ± 0.051

Substance: CFVGVTFDLSSDLCLFCNKV
- amyloid nucleation score: inactive

Substance: CFVLFLNLLVATGPIWINSP
- amyloid nucleation score: 0.477 ± 0.2

Substance: CFYAISDRRSRFSIIFTYNG
- amyloid nucleation score: inactive

Substance: CGISSILIAFCCNHYIVQWM
- amyloid nucleation score: 1.92 ± 0.054

Substance: CGLPTVKTYRMEMSYNRLDW
- amyloid nucleation score: inactive

Substance: CGTCLRMVKVTRSDV
- amyloid nucleation score: inactive

Substance: CGVCFYHIAWGSVHDTS
- amyloid nucleation score: 0.93 ± 0.16

Substance: CHCIYNQCVGFSVCGCRGFG
- amyloid nucleation score: 2.35 ± 0.058

Substance: CHGCMRLLSDGLKDEWYMIF
- amyloid nucleation score: inactive

Substance: CHNVLWRLKRFHASRCTGDM
- amyloid nucleation score: inactive

Substance: CIAPILFPALAHQLLLAKGH
- amyloid nucleation score: inactive

Substance: CILYRFPPATKSHRITGIYK
- amyloid nucleation score: inactive

Substance: CIMRMTFTMITYCNSLSLGS
- amyloid nucleation score: inactive

Substance: CIRGVQNTGCGAQACYPVCR
- amyloid nucleation score: inactive

Substance: CIRPVLSHSYEIKNTGLGRT
- amyloid nucleation score: inactive

Substance: CKGNINTYGYLYLDVYFYIM
- amyloid nucleation score: 1.94 ± 0.073

Substance: CKRNKDGKWRRKTWRLVQFY
- amyloid nucleation score: -1 ± 1.2

Substance: CLFRDDRNRVDI
- amyloid nucleation score: inactive

Substance: CLLEHFK
- amyloid nucleation score: inactive

Substance: CLNYSETCSPI
- amyloid nucleation score: inactive

Substance: CLSLFTSGIV
- amyloid nucleation score: inactive

Substance: CLSYITLPRCLCAHRFKLG
- amyloid nucleation score: inactive

Substance: CLTGRLLKSSVIRWRKYMNV
- amyloid nucleation score: inactive

Substance: CLTTVRLRNYFF
- amyloid nucleation score: inactive

Substance: CLTVHTVNIIGMNFIVNVAL
- amyloid nucleation score: 2.72 ± 0.085

Substance: CLVKHRPHSEVACGADNVCR
- amyloid nucleation score: inactive

Substance: CLVYLV
- amyloid nucleation score: inactive

Substance: CMFCLPMGNSIRGLGNRNSV
- amyloid nucleation score: 1.87 ± 0.074

Substance: CMGACLAGDTCKWIRQHLSG
- amyloid nucleation score: inactive

Substance: CMLCTQLHNNRRKKSKMCWS
- amyloid nucleation score: inactive

Substance: CMMPLNATRYVYLPNAAHSL
- amyloid nucleation score: inactive

Substance: CMQSEHTTSAYYRLDCS
- amyloid nucleation score: -0.276 ± 0.41

Substance: CMTFLNIYSNGQLSGTYCLF
- amyloid nucleation score: 1.59 ± 0.083

Substance: CNCVYSSANFCDIMYTNRLG
- amyloid nucleation score: 1.14 ± 0.085

Substance: CNNNLGVVFPRFWSIFAKGC
- amyloid nucleation score: inactive

Substance: CNYNTTM
- amyloid nucleation score: inactive

Substance: CPCDTGVKQVTILEQGWVVM
- amyloid nucleation score: 0.963 ± 0.14

Substance: CPPGWRCQHKLDLTLGPDRW
- amyloid nucleation score: inactive

Substance: CPSWCYFNRGDV
- amyloid nucleation score: 1.39 ± 0.091

Substance: CPYVKSHSICDDSSGLPRLK
- amyloid nucleation score: inactive

Substance: CRCNWENCCMDQL
- amyloid nucleation score: inactive

Substance: CRIPALTTTMLITNG
- amyloid nucleation score: inactive

Substance: CRKEYIFYLFHIIMSQARNI
- amyloid nucleation score: inactive

Substance: CRLPLQSL
- amyloid nucleation score: inactive

Substance: CRNCR
- amyloid nucleation score: inactive

Substance: CRPRLVLSFGQIVY
- amyloid nucleation score: inactive

Substance: CRRRYSDLSIYLLVSNDVIV
- amyloid nucleation score: inactive

Substance: CRSWVPMGGDLHRGWSLANK
- amyloid nucleation score: inactive

Substance: CSCQRPKAFQVQWNGG
- amyloid nucleation score: 0.789 ± 0.14

Substance: CSCWTISLFCLWQTLRFPPI
- amyloid nucleation score: 0.438 ± 0.23

Substance: CSDATIGQNSGSHDQLNRSD
- amyloid nucleation score: inactive

Substance: CSDCDWSDFFVDVSFWIMVI
- amyloid nucleation score: inactive

Substance: CSDNILEHYTSFYWLMSVHR
- amyloid nucleation score: inactive

Substance: CSIILWALPEFNLLDFLPAD
- amyloid nucleation score: inactive

Substance: CSISNVFSVVNVSSYSWGLY
- amyloid nucleation score: 0.373 ± 0.39

Substance: CSLCYETGSICVVSRGEDGL
- amyloid nucleation score: inactive

Substance: CSLNLCVKDTHIHEN
- amyloid nucleation score: inactive

Substance: CSLVLSESPFGNI
- amyloid nucleation score: inactive

Substance: CSMPFTSSEKLGKCGNDAPF
- amyloid nucleation score: inactive

Substance: CSRLPVHRFIP
- amyloid nucleation score: inactive

Substance: CSSQTIRGTDKSHDVLAKLL
- amyloid nucleation score: inactive

Substance: CSSSRVWVHKHYGTYRHFIL
- amyloid nucleation score: inactive

Substance: CTAILAVMSIGNFFNRLDLN
- amyloid nucleation score: inactive

Substance: CTCFRGSTFRNAYN
- amyloid nucleation score: inactive

Substance: CTHLLFCPMGRVSTCSLKME
- amyloid nucleation score: inactive

Substance: CTHVLRNWGIKNGP
- amyloid nucleation score: inactive

Substance: CTRSVSILESLRDSNTSLSQ
- amyloid nucleation score: inactive

Substance: CTTRMCNGLWNARLRGTTSP
- amyloid nucleation score: inactive

Substance: CTYIVHATVEPVYDNDLLKW
- amyloid nucleation score: inactive

Substance: CTYLAVVTMMDEELWGIRWN
- amyloid nucleation score: inactive

Substance: CVDVSGLFGNIMEVILVMSW
- amyloid nucleation score: inactive

Substance: CVLSSRF
- amyloid nucleation score: inactive

Substance: CVMGIRIHPFVVYNGQGGTS
- amyloid nucleation score: inactive

Substance: CVMLVAVQGR
- amyloid nucleation score: inactive

Substance: CVNMLRKTVIYFLHFPAYYR
- amyloid nucleation score: inactive

Substance: CVNTHRY
- amyloid nucleation score: inactive

Substance: CVQRVREYVGT
- amyloid nucleation score: inactive

Substance: CVRYSRSGWVCDTGRLKDPC
- amyloid nucleation score: inactive

Substance: CVSIGVVMCFCKSRFAITFV
- amyloid nucleation score: inactive

Substance: CVSRICVWPRYETTGFYAST
- amyloid nucleation score: inactive

Substance: CVTFFVISTHPHSCSLSN
- amyloid nucleation score: 2.42 ± 0.083

Substance: CVTGVSLPGNRISG
- amyloid nucleation score: inactive

Substance: CVTRDDLCYW
- amyloid nucleation score: inactive

Substance: CVYNRLNMF
- amyloid nucleation score: -0.296 ± 0.28

Substance: CWADSDSVSKKSRIA
- amyloid nucleation score: inactive

Substance: CWAYF
- amyloid nucleation score: inactive

Substance: CWFLVTMGYAGCFFSPVTQL
- amyloid nucleation score: inactive

Substance: CWIAMCGVVFNDLRMS
- amyloid nucleation score: 2.81 ± 0.071

Substance: CWLPFVCCAQCLNRIDVVSR
- amyloid nucleation score: 2.32 ± 0.066

Substance: CWNDSLLCYMSSTMGNVQTT
- amyloid nucleation score: inactive

Substance: CWVRIVAICMGFW
- amyloid nucleation score: inactive

Substance: CYFLQ
- amyloid nucleation score: inactive

Substance: CYGKLDGMTNDEEGTPVFAN
- amyloid nucleation score: inactive

Substance: CYGLSRCTRAEAMCPKG
- amyloid nucleation score: inactive

Substance: CYIYLSMQYGEHANDIICLW
- amyloid nucleation score: inactive

Substance: CYKMNVMT
- amyloid nucleation score: inactive

Substance: CYQVWPARLSILHARLLGGR
- amyloid nucleation score: inactive

Substance: CYRISSESWSTWWIYFWSCR
- amyloid nucleation score: inactive

Substance: CYWKLYCGNEYYGVSFMGVL
- amyloid nucleation score: inactive

Substance: CYYDEVFAFLSLMTFRIQNK
- amyloid nucleation score: inactive

Substance: DALRL
- amyloid nucleation score: inactive

Substance: DANWDTLIFLSSRMNAWRYK
- amyloid nucleation score: 1.86 ± 0.077

Substance: DCALAAGMK
- amyloid nucleation score: inactive

Substance: DCCSYRSERA
- amyloid nucleation score: inactive

Substance: DCFFRSVDLADSR
- amyloid nucleation score: inactive

Substance: DCFSGIGCSRRKT
- amyloid nucleation score: inactive

Substance: DCGKWNLWSQPLGTG
- amyloid nucleation score: inactive

Substance: DCMNGLVCFFMMCRGSLIRD
- amyloid nucleation score: inactive

Substance: DCPLNNVTSLSHP
- amyloid nucleation score: inactive

Substance: DCSGG
- amyloid nucleation score: inactive

Substance: DDCQFSDNRRFKSVPSYSQR
- amyloid nucleation score: inactive

Substance: DDGSKCLLSSMMFVNLVTYC
- amyloid nucleation score: inactive

Substance: DDYLPMISPFRCYSQFKYIS
- amyloid nucleation score: inactive

Substance: DENVRLTL
- amyloid nucleation score: inactive

Substance: DFDAC
- amyloid nucleation score: 0.021 ± 0.52

Substance: DFDLLSFIRSDVIPCVCSKG
- amyloid nucleation score: inactive

Substance: DFELFSSALGSLSNGHSENV
- amyloid nucleation score: inactive

Substance: DFEVR
- amyloid nucleation score: inactive

Substance: DFFLRVMYMKWNAPL
- amyloid nucleation score: inactive

Substance: DFGFWLVDVGWGPLLRYVAD
- amyloid nucleation score: inactive

Substance: DFKDCDICTTPNDKVESGKV
- amyloid nucleation score: inactive

Substance: DFLLATDQVGYKDLDLGTKV
- amyloid nucleation score: inactive

Substance: DFLYRGMNGSGFPLCIYQRC
- amyloid nucleation score: inactive

Substance: DFRRANGEYWLTAAPMLIHT
- amyloid nucleation score: 0.396 ± 0.28

Substance: DFRRTGLCIREWSSWRIMKL
- amyloid nucleation score: inactive

Substance: DFSTDTHWKVWW
- amyloid nucleation score: 0.566 ± 0.43

Substance: DFVRSNNCYWCFAAFSPCFR
- amyloid nucleation score: inactive

Substance: DFVTHWSVAMLMI
- amyloid nucleation score: inactive

Substance: DFYFRVIVVGGHCVSDTSFL
- amyloid nucleation score: inactive

Substance: DFYLDLITLDNRTTSSTSML
- amyloid nucleation score: inactive

Substance: DGAEDCRS
- amyloid nucleation score: -1.03 ± 2.5

Substance: DGCALSMPNYAGNQVVKQRG
- amyloid nucleation score: inactive

Substance: DGDIVQCSSLCKVSGFLFTS
- amyloid nucleation score: inactive

Substance: DGEASTRVSCGDDIFRKTSS
- amyloid nucleation score: 1.03 ± 0.16

Substance: DGLSLPPMMVNRVQTATQSR
- amyloid nucleation score: inactive

Substance: DGMTKFRWSCVRWVCG
- amyloid nucleation score: inactive

Substance: DHRNVRRLKVRLTECIE
- amyloid nucleation score: inactive

Substance: DIQVFLTSSLQFIAEISVGG
- amyloid nucleation score: inactive

Substance: DIRYLISSTRYLDVMEGFLV
- amyloid nucleation score: inactive

Substance: DKALS
- amyloid nucleation score: inactive

Substance: DKEDHLSVFWAV
- amyloid nucleation score: inactive

Substance: DKRFELNRALLTVPWDQNRA
- amyloid nucleation score: inactive

Substance: DKSLFKII
- amyloid nucleation score: inactive

Substance: DKYFVAASWFRWVLVYMGWS
- amyloid nucleation score: inactive

Substance: DLNIIRISAYLCLANCFPST
- amyloid nucleation score: 2.37 ± 0.054

Substance: DLNRYSWSRKRRLCCSHCRG
- amyloid nucleation score: inactive
